{"source": "paper PMC5829824", "biological_target": "mCherry-tagged human vimentin (human) (UniProt P08670)", "sequence (P08670 whole entry)": "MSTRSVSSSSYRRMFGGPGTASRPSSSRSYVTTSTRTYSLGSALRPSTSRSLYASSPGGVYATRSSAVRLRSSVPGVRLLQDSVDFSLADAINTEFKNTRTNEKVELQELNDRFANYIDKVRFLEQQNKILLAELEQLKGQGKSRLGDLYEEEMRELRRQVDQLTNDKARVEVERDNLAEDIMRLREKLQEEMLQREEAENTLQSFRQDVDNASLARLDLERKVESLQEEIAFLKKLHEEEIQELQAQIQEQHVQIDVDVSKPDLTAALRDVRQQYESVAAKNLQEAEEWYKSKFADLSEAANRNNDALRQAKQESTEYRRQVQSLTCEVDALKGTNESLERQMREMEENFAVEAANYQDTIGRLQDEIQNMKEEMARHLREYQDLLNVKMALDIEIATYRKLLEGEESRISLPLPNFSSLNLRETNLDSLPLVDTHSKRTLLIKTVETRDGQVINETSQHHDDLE", "assay": "co-IP; mCherry-vimentin or RFP from bEnd.3 cell extracts immunoprecipitated with RFP-trap beads, then incubated with purified InlF-His6; eluates blotted with anti-His6 and anti-RFP; densitometry", "data": [{"substance": "InlF-His6 (Listeria monocytogenes internalin family surface protein InlF, His6-tagged) (from UniProt O33930 1-821) (natural protein)", "values": [{"measurement": "ratio of anti-His to anti-RFP signals (densitometry), fold over the RFP control", "result": "> 5", "unit": "fold"}]}]}
